In patent US20180339057A1 (Novo Nordisk, published 2018):
Residue numbers refer to the chain shown, from its start. Names and notes keep the numbering of the source. Values belong to the binder of their own block, whether it stands above or below them.

Key:
[1] = molecular target: T1, human MIC-1 receptor (hGFRAL, GDNF family receptor alpha like), full length (human, UniProt Q6UXV0 19-394); experiment: cell-based or functional assay
T1 sequence (looked up): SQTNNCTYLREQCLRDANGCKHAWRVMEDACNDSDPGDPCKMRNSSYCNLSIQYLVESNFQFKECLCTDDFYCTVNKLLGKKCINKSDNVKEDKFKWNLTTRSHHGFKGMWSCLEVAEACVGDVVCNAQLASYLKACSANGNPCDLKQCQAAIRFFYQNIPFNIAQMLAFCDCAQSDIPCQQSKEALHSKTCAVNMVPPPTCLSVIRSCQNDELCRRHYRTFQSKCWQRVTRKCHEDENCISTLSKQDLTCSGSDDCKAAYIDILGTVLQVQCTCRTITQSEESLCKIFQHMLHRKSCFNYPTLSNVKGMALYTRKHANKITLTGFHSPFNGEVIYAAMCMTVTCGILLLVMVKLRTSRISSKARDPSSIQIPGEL

[2] = molecular target: T1, human MIC-1 receptor (hGFRAL, GDNF …); experiment: SPA: displacement of 50 pM human [125I]-MIC-1 from BHK21-hGFRAL-IRES-hRET cell membranes
Description: Binding potencies of MIC-1 compounds were calculated by IC50 of displacement curves.
BHK21-hGFRAL-IRES-hRET cells were cultured at +37° C. in a humidified atmosphere with 5% CO₂ in complete medium consisting of DMEM with high glucose and sodium pyrovate, heat inactivated 10% Fetal Bovine Serum, 1% Penicillin-Streptomycin, 1 mg/ml G418-Geneticin and 400 ug/ml Hygromycin. Cells were washed twice in ice cold Dulbecco's phosphate-buffered saline (DPBS) and detached mechanically by scraping, transferred in ice cold DPBS into conical centrifuge tubes and centrifuged for 5 min at 1500 rpm at +20° C. Cell pellet was resuspended in a total amount of 10 ml ice cold homogenization buffer A (50 mM Tris, 2.5 mM EDTA, adjust pH7.4 with one EDTA-free protease inhibitor cocktail tablet/50 ml) and homogenized for 20 seconds. The homogenate was centrifuged at 16000 rpm in 20 minutes at +4° C. The supernatant was discarded and the pellet was reconstituted in 10 ml homogenization buffer B (50 mM Tris, 320 mM Sucrose, adjust pH 7.4 with one EDTA-free protease inhibitor cocktail tablet/50 ml) and homogenized for 20 seconds and centrifuged at 16000 rpm in 20 minutes at +4° C. This procedure was repeated one more time. The supernatant was discarded and the pellet was reconstituted in 3 ml homogenization buffer B and homogenized for 10 seconds at low speed. Protein concentration was determined by standard Bradford method and 1.5 mg protein/tube was aliquoted to cryotubes and stored at −80° C. Binding assays were performed in white 96-well plates in a total volume of 200 μl per well. Wheat germ agglutinin SPA beads were reconstituted in assay buffer (50 mM Tris/HCl, 4.5 mM MgCl₂, 0.02% Tween 20 and 0.25% Ovalbumin pH 7.4) and mixed with membrane preparation to give a final concentration of 0.5 mg SPA beads and 10 μg total protein per well. […] The plate was sealed and incubated at +22° C. for 2 hours in a plate shaker set at 350 rpm and thereafter centrifuged at 1500 rpm for 10 minutes prior to reading of SPA bead light emission.

[3] = molecular target: T1, human MIC-1 receptor (hGFRAL, GDNF …); experiment: cell-based or functional assay; remark: listed apart in the source

B2: Compound 19 (ligand)
chain: SEPCTSGSETPGTSESATPESGPGTSTEPSEGARGDHCPLGPGRCCRLHTVRASLEDLGWADWVLSPREVQVTMCIGACPSQFRAANMHAQIKTSLHRLKPDTVPAPCCVPASYNPMVLIQKTDTGVSLQTYDDLLAKDCHCI
modifications: Cys-29 (residue 4 of SEQ ID NO: 288): S{Beta}-[2-[[(1S)-1-carboxy-5-[[2-[2-[2-[[2-[2-[2-[[(4S)-4-carboxy-4-[10-(4-carboxyphenoxy)decanoylamino]butanoyl]amino]ethoxy]ethoxy]acetyl]amino]ethoxy]ethoxy]acetyl]amino]pentyl]amino]-2-oxoethyl]Cys (protractor of Example 10.8)
notes: homodimer, two protractors per dimer
Luciferase + 0.1% HSA NNDK EC50 (pM) [1]: 62 pM
Luciferase NNDK EC50 (pM) [1]: 45 pM
IC50 [2]: 17 nM

B3: Compound 06 (ligand)
chain: B2 chain with C4A, S8C, M88L, M117L
modifications: Cys-25 (residue 8 of SEQ ID NO: 303): S{Beta}-[2-[2-[[2-[2-[2-[[2-[2-[2-[[(4S)-4-carboxy-4-(17-carboxyheptadecanoylamino)butanoyl]amino]ethoxy]ethoxy]acetyl]amino]ethoxy]ethoxy]acetyl]amino]ethylamino]-2-oxoethyl]Cys (protractor of Example 10.4)
notes: as for B2
Luciferase + 0.1% HSA NNDK EC50 (pM) [1]: 61 pM
Luciferase NNDK EC50 (pM) [1]: 81 pM
IC50 [2]: 21 nM

B5: Compound 07 (ligand)
chain: B2 chain with C4A, T18C, M88L, M117L
modifications: Cys-15 (residue 18 of SEQ ID NO: 292): S{Beta}-[2-[2-[[2-[2-[2-[[2-[2-[2-[[(4S)-4-carboxy-4-(17-carboxyheptadecanoylamino)butanoyl]amino]ethoxy]ethoxy]acetyl]amino]ethoxy]ethoxy]acetyl]amino]ethylamino]-2-oxoethyl]Cys (protractor of Example 10.4)
notes: as for B2
Luciferase + 0.1% HSA NNDK EC50 (pM) [1]: 198 pM
Luciferase NNDK EC50 (pM) [1]: 121 pM
IC50 [2]: 29 nM

B8: SEPATSCSETPGTSESATPESGPGTSTEPSEG-MIC-1, des-N3, M57L, M86L (Cys mutation G(-26)C) (ligand)
chain: B2 chain with C4A, G7C, M88L, M117L
notes: homodimer; no protractor
Luciferase + 0.1% HSA NNDK EC50 (pM) [1]: 26 pM
Luciferase NNDK EC50 (pM) [1]: 35 pM
IC50 [2]: 36 nM

B10: Compound 08 (ligand)
chain: B2 chain with C4A, S30C, M88L, M117L
modifications: Cys-3 (residue 30 of SEQ ID NO: 293): S{Beta}-[2-[2-[[2-[2-[2-[[2-[2-[2-[[(4S)-4-carboxy-4-(17-carboxyheptadecanoylamino)butanoyl]amino]ethoxy]ethoxy]acetyl]amino]ethoxy]ethoxy]acetyl]amino]ethylamino]-2-oxoethyl]Cys (protractor of Example 10.4)
notes: as for B2
Luciferase + 0.1% HSA NNDK EC50 (pM) [1]: 651 pM
Luciferase NNDK EC50 (pM) [1]: 139 pM
IC50 [2]: 56 nM

B11: Compound 11 (ligand)
chain: B2 chain with M88L, M117L
modifications: Cys-29 (residue 4 of SEQ ID NO: 290): S{Beta}-[2-[2-[[2-[2-[2-[[2-[2-[2-[[(4S)-4-carboxy-4-(17-carboxyheptadecanoylamino)butanoyl]amino]ethoxy]ethoxy]acetyl]amino]ethoxy]ethoxy]acetyl]amino]ethylamino]-2-oxoethyl]Cys (protractor of Example 10.4)
notes: as for B2
Luciferase + 0.1% HSA NNDK EC50 (pM) [1]: 62 pM
Luciferase NNDK EC50 (pM) [1]: 55 pM
IC50 [2]: 29 nM

B14: SEPATSGSETPGTSESATPESGPGTSTEPS-MIC-1-Δ1-3 (ligand)
chain: SEPATSGSETPGTSESATPESGPGTSTEPSGDHCPLGPGRCCRLHTVRASLEDLGWADWVLSPREVQVTMCIGACPSQFRAANMHAQIKTSLHRLKPDTVPAPCCVPASYNPMVLIQKTDTGVSLQTYDDLLAKDCHCI
Emax (%) [3]: 100%
pERK EC50 (nM) [3]: 0.4 nM

More lines, now with the values ahead:

Luciferase + 0.1% HSA NNDK EC50 (pM) [1]: 65 pM
Luciferase NNDK EC50 (pM) [1]: 43 pM
IC50 [2]: 4.7 nM
B1: Compound 17 (ligand)
chain: B2 chain
modifications: Cys-29 (residue 4 of SEQ ID NO: 288): S{Beta}-[2-[2-[[2-[2-[2-[[2-[2-[2-[[(4S)-4-carboxy-4-(16-sulfohexadecanoylamino)butanoyl]amino]ethoxy]ethoxy]acetyl]amino]ethoxy]ethoxy]acetyl]amino]ethylamino]-2-oxoethyl]Cys (protractor of Example 10.6)
notes: as for B2

Luciferase + 0.1% HSA NNDK EC50 (pM) [1]: 67 pM
Luciferase NNDK EC50 (pM) [1]: 66 pM
IC50 [2]: 1.3 nM
B4: Compound 18 (ligand)
chain: B2 chain
modifications: Cys-29 (residue 4 of SEQ ID NO: 288): S{Beta}-[2-[[(5S)-5-carboxy-5-[[2-[2-[2-[[2-[2-[2-[4-[17-(1H-tetrazol-5-yl)heptadecanoylsulfamoyl]butanoylamino]ethoxy]ethoxy]acetyl]amino]ethoxy]ethoxy]acetyl]amino]pentyl]amino]-2-oxoethyl]Cys (protractor of Example 10.7)
notes: as for B2

Luciferase + 0.1% HSA NNDK EC50 (pM) [1]: 63 pM
Luciferase NNDK EC50 (pM) [1]: 57 pM
IC50 [2]: 23 nM
B6: Compound 05 (ligand)
chain: B2 chain with C4A, G7C, M88L, M117L
modifications: Cys-26 (residue 7 of SEQ ID NO: 289): S{Beta}-[2-[2-[[2-[2-[2-[[2-[2-[2-[[(4S)-4-carboxy-4-(17-carboxyheptadecanoylamino)butanoyl]amino]ethoxy]ethoxy]acetyl]amino]ethoxy]ethoxy]acetyl]amino]ethylamino]-2-oxoethyl]Cys (protractor of Example 10.4)
notes: as for B2

Luciferase + 0.1% HSA NNDK EC50 (pM) [1]: 45 pM
Luciferase NNDK EC50 (pM) [1]: 80 pM
IC50 [2]: 10 nM
B7: SEPATCGSETPGTSESATPESGPGTSTEPSEG-MIC-1, des-N3 (Cys mutation S(-27)C) (ligand)
chain: B2 chain with C4A, S6C
notes: homodimer; no protractor

Luciferase + 0.1% HSA NNDK EC50 (pM) [1]: 56 pM
Luciferase NNDK EC50 (pM) [1]: 53 pM
IC50 [2]: 1 nM
B9: Compound 21 (ligand)
chain: B2 chain
modifications: Cys-29 (residue 4 of SEQ ID NO: 288): S{Beta}-[2-[2-[[2-[2-[2-[[2-[2-[2-[[(4S)-4-carboxy-4-[16-(1H-tetrazol-5-yl)hexadecanoylamino]butanoyl]amino]ethoxy]ethoxy]acetyl]amino]ethoxy]ethoxy]acetyl]amino]ethylamino]-2-oxoethyl]Cys (protractor of Example 10.10)
notes: as for B2

Luciferase + 0.1% HSA NNDK EC50 (pM) [1]: 51 pM
Luciferase NNDK EC50 (pM) [1]: 63 pM
IC50 [2]: 11 nM
B12: Compound 16 (ligand)
chain: B2 chain with C4A, M88L, K100R, M117L, K122R, K138R
modifications: alpha-amino group of the N-terminal Ser-32 (residue 1 of SEQ ID NO: 312): N-[4-[[[2-[2-[2-[[2-[2-[2-[[(4S)-4-carboxy-4-(17-carboxyheptadecanoylamino)butanoyl]amino]ethoxy]ethoxy]acetyl]amino]ethoxy]ethoxy]acetyl]amino]methyl]phenyl]methyl (protractor of Example 10.1)
notes: homodimer, two protractors per dimer; also called dialkylated

Emax (%) [3]: 100%
pERK EC50 (nM) [3]: 0.4 nM
B13: SEPATSGSETPGTSESATPESGPGTSTEPSEG-MIC-1-Δ1-3 (ligand)
chain: SEPATSGSETPGTSESATPESGPGTSTEPSEGGDHCPLGPGRCCRLHTVRASLEDLGWADWVLSPREVQVTMCIGACPSQFRAANMHAQIKTSLHRLKPDTVPAPCCVPASYNPMVLIQKTDTGVSLQTYDDLLAKDCHCI
